In US11407819B2, “Compositions and use of a fibrinogen binding motif present in EFB and COA for therapeutics and vaccines against Staphylococcus aureus” (priority 2013, dated 2022):
Where a chain is given by its changes, count along the chain named. “Also recorded” adds a separate entry of the source.

What was measured:
[1] = test system: Coa-F, Coa-R0, Efb-N, Efb-O, Efb-A binding to Fg; assay: Inhibition by FBE5 scFv-Fc of Coa and Efb fragment binding to immobilized human Fg; design: species or system Staphylococcus aureus; conditions: scFv-Fc 0.5, 5, 50 μg/ml; Coa-F, Coa-R0, Efb-N, Efb-O 10 nM; Efb-A 750 nM
Protocol: To assess the inhibitory activity of anti-Coa scFv-Fc antibodies, 0.5 μg/well of human Fg was immobilized at 4° C. overnight in 50 mM Carbonate Buffer, pH 9.6. Indicated amounts (50, 5, 0.5 μg/ml) of scFv-Fcs prepared in 2% BSA+1×TBS+0.05% TWEEN® 20 were pre-incubated for 1 hour with a constant concentration of Coa or Efb fragments also prepared in 2% BSA+1×TBS+0.05% TWEEN® 20 at room temperature, 250 rpm shaking. Specifically, Coa-F, Coa-R0, Efb-N and Efb-O were at a fixed concentration of 10 nM; whereas Efb-A was at 750 nM. Fg-binding activity of each protein alone was also checked (no mAb control—0 μg/ml). The Fg-coated plate was blocked with 2% BSA-TBST and washed with PBST. […] Residual bound Coa and Efb fragments were detected with HRP-conjugated (HorseRadish Peroxidase-conjugated) α-GST-tag antibody, except for Efb-N, where an HRP-conjugated α-HIS-tag was used (see FIG. 18). HRP-tagged antibodies were diluted in 2% BSA+1×TBS+0.05% TWEEN® 20 and used at 1:10000 dilution. […] HRP signal was developed using […]™ OPD tablets using manufacturer's guidelines. Binding of Coa and Efb fragments to Fg (no mAb control) was set to 100% and residual binding to Fg of Coa and Efb fragments in the presence of different concentrations of antibodies was calculated and represented.
To assess the inhibitory activity of anti-Coa scFv-Fc antibodies, 0.5 μg/well of human Fg was immobilized at 4° C. overnight in 50 mM Carbonate Buffer, pH 9.6. Indicated amounts (0, 0.5, 5, and 50 μg/ml) of scFv-Fcs were pre-incubated for 1 hour with a constant concentration of Coa or Efb fragments. Specifically, Coa-F, Coa-R0, Efb-N and Efb-O were at a fixed concentration of 10 nM; whereas Efb-A was at 750 nM. Fg-binding activity of each protein alone was also checked (no mAb control—0 μg/ml). The Fg-coated plate was blocked with 2% BSA-PBST and washed with PBST. The pre-incubated mixture of Coa/Efb and anti-Coa scFv-Fc was transferred on the Fg-coated plate. Residual bound Coa and Efb fragments were detected with HRP-conjugated (HorseRadish Peroxidase-conjugated) α-GST-tag antibody, except for Efb-N, where an HRP-conjugated α-HIS-tag was used. Binding of Coa and Efb fragments to Fg (no mAb control) was set to 100% and residual binding to Fg of Coa and Efb fragments in the presence of different concentrations of antibodies was calculated and represented.

[2] = biological target: Coa-C311-636, Coa-F311-505, Coa-R0474-505; conditions: all three Coa fragments (Coa-C311-636, Coa-F311-505, Coa-R0474-505)
From the text: (§1) Apparent affinity values were generated through analysis of the half maximum binding in ELISA, using […] PRISM® Version 6.01.

[3] = test system: Coa-F311-505 and Coa-R0474-505; assay: Solid-phase binding ELISA of LIG40 antibodies to Coa-F311-505 and Coa-R0474-505; design: species or system Staphylococcus aureus; conditions: 200 ng/well
Protocol: As well, binding was tested against Coa fragments, namely Coa-C311-636. Coa-F311-505. Coa-R0474-505 and Coa-R506-636. […] Immobilized proteins were probed for recognition in a solid-phase binding assay with different quantities of LIG40 antibodies after blocking and washing. […] HRP signal was developed with […]™ OPD using manufacturers guidelines. These 2 antibodies bound only Coa fragments in a dose dependent manner. No binding to truncated recombinant Efb proteins was observed.
For both antibodies, values in the range of 10^−10-10^−11 M were obtained.

Coa-C311-636 = assay: Solid-phase binding ELISA of scFv-Fc antibodies to Coa-C311-636; design: species or system Staphylococcus aureus; conditions: 200 ng/well
Protocol: (§2) As well, binding was tested against Coa fragments, namely Coa-C311-636. Coa-F311-505. Coa-R0474-505 and Coa-R506-636. Recombinant proteins Efb-N30-105, Efb-A30-67, Efb-O68-98, Coa-C311-636, Coa-F311-505, Coa-R0474-505 and Coa-R506-636 were diluted in 50 mM sodium carbonate pH 9.6 and immobilized at the concentration of 200 ng/well for 1 hour at room temperature. Immobilized proteins were probed for recognition in a solid-phase binding assay with different quantities of LIG40 antibodies after blocking and washing. After washing, varying concentrations of LIG40 scFv-Fc antibodies were diluted in 2% BSA+1×PBS+0.05% TWEEN® 20 and incubated with the immobilized proteins for 1 hour at room temperature with shaking at 250 rpm. Bound scFv-Fcs were detected using polyclonal α-human IgG HRP-conjugated Ab diluted to 1:10000 in 2% BSA+1×PBS+0.05% TWEEN® 20. HRP-conjugated Ab was incubated for 1 hour at room temperature with shaking at 250 rpm.
as §1

CoaC and CoaR = assay: Peptide (CoaRO, CoaRI) inhibition of LIG40 mAbs binding to immobilized CoaC and CoaR; design: species or system Staphylococcus aureus; conditions: mAbs 0.5 μg/ml; 200 ng/well
Protocol: To investigate if LIG40 mAbs could be inhibited by CoaRO and CoaRI peptides, CoaC and CoaR (200 ng/well) was immobilized at 4° C. overnight in 50 mM Carbonate Buffer, pH 9.6. A fixed concentration of mAbs (0.5 μg/ml) prepared in 2% BSA+1×TBS+0.05% TWEEN® 20 was added to the wells along with indicated amounts of CoaRO and CoaRI peptides prepared in 1X TBS. Incubation for 1 hour, room temperature, 250 rpm shaking followed. After washing, the levels of bound mAbs were determined using a polyclonal α-human IgG HRP-conjugated Ab diluted 1:10000 in 2% BSA+1×TBS+0.05% TWEEN® 20. […] The development was performed through […]™ OPD tablets following manufacturer's protocol. […] First, to achieve appreciable inhibition high concentration of peptides needed to be used (above 100 μM).
To investigate if LIG40 mAbs could be inhibited by CoaRO and CoaRI peptides, CoaC and CoaR (200 ng/well) was immobilized at 4° C. overnight in 50 mM Carbonate Buffer, pH 9.6. A fixed concentration of mAbs (0.5 μg/ml) was added to the wells along with, indicated amounts of CoaRO and CoaRI peptides. Incubation for 1 hour, room temperature, 250 rpm shaking followed. After washing, […] were incubated with polyclonal α-human IgG HRP-conjugated Ab. […] First, to achieve appreciable inhibition high concentration of peptides needed to be used (above 100 μM).

Coa-R506-636 = biological target: T1, Coa-R506-636 (Staphylococcus aureus, UniProt P07767); type: binding; conditions: 200 ng/well
T1 construct: the Coa-R is corresponding to the tandem-repeat region covering residue 506-636; GST (N); made in house; host or cells: E. coli BL21
Protocol: as §2, §1

B1: FBE5-F11: VH SEQ ID NO: 81, VL SEQ ID NO: 111 (antibody, V domains shown)
VH: QVQLQESGGGVVQPGRSLRLSCAASGFTFSSYGMHWVRQAPGKGLEWVAVISYDGSNKYYADSVKGRFTISRDNSKNTLYLQMNSLRAEDTAVYYCAKDLASSGFDYWGQGTLVTVSS
VL: QSVLTQPPSVSAAPGQKVTISCSGSSSNIGNNYVSWYQQLPGTAPKLLIYDNNKRPSGIPDRFSGSKSGTSATLGITGLQTGDEADYYCGTWDSSLSAEVFGGGTKLTVL
With B1 as the molecule, how does the “inhibition of binding to Fg of all proteins tested” value [1] read?
The value was “dose dependent inhibition of all proteins tested; also recorded: marked inhibition against all fragments of Coa and Efb”.

And the “apparent Kd of anti-CoaC mAbs to Coa fragments (EC50 in ELISA)” value [2]?
The value was “highest affinity”.

B2: LIG40-D8: VH SEQ ID NO: 100, VL SEQ ID NO: 130; selected against Coa-R506-636 (antibody, V domains shown)
VH: B1 VH with Q1E, Q5V, S52W, K98R, L100Y, A101H, S102G, S103D
VL: DIQMTQSPSSLSASVGDTVTITCRASQDINNYLAWFQQKPGKAPKSLISAASSLQNGVPLRFSGSASGADFTLTISGLQPEDSGTYYCQQYDVFPITFGPGTKVDIK
Which results are given for B2?
binding to Coa-F311-505 and Coa-R0474-505 [3]: detected to a minor extent; also recorded: minor binding; binding to Coa-C311-636 (Coa-C311-636): bound; inhibition of LIG40 mAb binding to CoaC and CoaR by peptides (CoaC and CoaR): only impaired in its binding activity by CoaRO peptide; binding to Coa-R506-636 (Coa-R506-636): bound
